As usually defined, the Kd is the equilibrium constant for the complex coming apart. By EC50 (read off the curve) is commonly meant the concentration that produces a half-maximal response.

The target of test [1] is Recombinant protein Claudin 18.2. Kind of test: ELISA on plate-coated recombinant Claudin 18.2, OD450; Kd table under the graph, no unit in the table, unit from the x axis log[antibody] nM. Background: In an ELISA, binding on a coated surface is turned into a signal by an enzyme label.
The target is the same in test [2]. Briefly: ELISA-based assay on Claudin 18.2, y axis RLU; Kd table under the graph, no unit in the table, unit from the x axis log[antibody] nM.
For test [3] the target is unchanged. The test is described as above. The source holds these as a separate data set.
The target is the same in test [4]. Briefly: ELISA on plate-coated recombinant Claudin 18.2, OD450; Kd table under the graph, no unit in the table, unit from the x axis log[antibody] nM. This is another data set of the same source.
The target is the same in test [5]. Kind of test: ELISA-based assay on Claudin 18.2, y axis RLU; Kd table under the graph, no unit in the table, unit from the x axis log[antibody] nM. This is another data set of the same source.
The target is the same in test [6]. Kind of test: ELISA, recombinant Claudin 18.2 coated at 4.5 ug/mL (Example 67), OD370; Kd table under the graph, no unit in the table, unit from the x axis log[antibody] nM.
The target in test [7] is human Claudin 18.1 (CLDN 18.1) expressed on HEK293 cells (human) (UniProt P56856). Kind of test: flow cytometry, 293T-CLDN18.1 cells, FL1-A histogram, gate P1; untransfected 293T: M1 0.1%. (In general: Flow cytometry measures light scatter and fluorescence of single cells or particles in a stream.)
The target of test [8] is Recombinant protein Claudin 18.2. Kind of test: ELISA as in Example 1, recombinant Claudin 18.2 coated on the plate, OD450, linear axis in ng/ml.
The target is the same in test [9]. Briefly: ELISA on plate-coated recombinant Claudin 18.2, OD370; Kd table under the graph, no unit in the table, unit from the x axis log[antibody] nM.

Recombinant protein Claudin 18.2, sequence (chain, as listed by the source limits assumed, form in doubt): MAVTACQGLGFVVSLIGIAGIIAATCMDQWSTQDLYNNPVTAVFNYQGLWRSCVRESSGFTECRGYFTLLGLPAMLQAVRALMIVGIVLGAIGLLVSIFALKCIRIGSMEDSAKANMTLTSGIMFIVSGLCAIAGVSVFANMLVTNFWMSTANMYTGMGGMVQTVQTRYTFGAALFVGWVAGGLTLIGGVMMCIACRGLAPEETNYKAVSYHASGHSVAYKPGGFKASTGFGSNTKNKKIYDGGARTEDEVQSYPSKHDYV
human Claudin 18.1 (CLDN 18.1) expressed on HEK293 cells (human), sequence (P56856 whole entry): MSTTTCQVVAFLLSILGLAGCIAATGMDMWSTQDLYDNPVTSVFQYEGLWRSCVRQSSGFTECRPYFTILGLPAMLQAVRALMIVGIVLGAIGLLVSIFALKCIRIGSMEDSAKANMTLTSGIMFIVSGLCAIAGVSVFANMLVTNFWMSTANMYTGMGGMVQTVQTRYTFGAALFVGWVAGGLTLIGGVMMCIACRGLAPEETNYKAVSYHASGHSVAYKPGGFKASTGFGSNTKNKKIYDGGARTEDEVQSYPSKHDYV

B1: h5C9o Fc mutation (antibody, V domains shown)
VH: EVQLVESGGGLVQPGGSLRLSCAVSGYTFSMNWVRQAPGKGLEWVAWINMYTGEPTYADDFKGRFTISRDDSKNTLYLQMNSLRAEDTAVYYCARLYNGNSLDYWGQGTLVTVSS
VL: DIQMTQSPSSLSASVGDRVTITCKSSQSLLNSGNQKSYLTWYQQKPGKAPKLLIYWASTLESGVPSRFSGSGSGTDYTLTISSLQPEDFATYYCQNAYSFPFTFGQGTKVEIKR
Consider B1, for which the values for the equilibrium dissociation constant (Kd) in test [1] and in [2] were 0.114 nM and 0.162 nM, respectively.

B2: h5C9oah (antibody, V domains shown)
VH: EVQLVESGGGLVQPGGSLRLSCAVSGYTFSMNWVRQAPGKGLEWVAWINMYTGEPTYADDFKGRFTISRDDSKNTLYLQMNSLRAEDTAVYYCARSSRGNGFDYWGQGTLVTVSS
VL: DIQMTQSPSSLSASVGDRVTITCKSSQSLLNSGNQKSYLTWYQQKPGKAPKLLIYWASTLESGVPSRFSGSGSGTDYTLTISSLQPEDFATYYCQNAYSFPFTFGQGTKVEIK
As to B2, the Kd in test [3] is 0.236 nM.

B3: humanized anti-Claudin 18.2 antibody h5C9oan (antibody, human IgG1, kappa, V domains shown)
VH: EVQLVESGGGLVQPGGSLRLSCAVSGYTFSMNWVRQAPGKGLEWVAWINMYTGEPTYADDFKGRFTISRDDSKNTLYLQMNSLRAEDTAVYYCARSSRGNGFDYWGQGTLVTVSS
VL: DIQMTQSPSSLSASVGDRVTITCKSSQSLLNSGNQKSYLTWYQQKPGKAPKLLIYWASTLESGVPSRFSGSGSGTDYTLTISSLQPEDFATYYCQNAYFFPFTFGQGTKVEIKR
In the case of B3, in [2], the Kd was found to be 0.12 nM.

B4: h5C9oi (antibody, V domains shown)
VH: EVQLVESGGGLVQPGGSLRLSCAVSGYTFSMNWVRQAPGKGLEWVAWINMYTGEPTYADDFKGRFTISRDDSKNTLYLQMNSLRAEDTAVYYCARMYNGNSLDYWGQGTLVTVSS
VL: DIQMTQSPSSLSASVGDRVTITCKSSQSLLNSGNQKSYLTWYQQKPGKAPKLLIYWASTLESGVPSRFSGSGSGTDYTLTISSLQPEDFATYYCQNSYSFPFTFGQGTKVEIK
With B4, the dissociation constant Kd in [4] was 0.0868 nM; in test [3], 0.316 nM.

B5: Anti-CLDN 18.2-5C9oai (humanized antibody h5C9oai) (antibody, human IgG1, V domains shown)
VH: EVQLVESGGGLVQPGGSLRLSCAVSGYTFSMNWVRQAPGKGLEWVAWINMYTGEPTYADDFKGRFTISRDDSKNTLYLQMNSLRAEDTAVYYCARLARGNSMDYWGQGTLVTVSS
VL: DIQMTQSPSSLSASVGDRVTITCKSSQSLLNSGNQKSYLTWYQQKPGKAPKLLIYWASTLESGVPSRFSGSGSGTDYTLTISSLQPEDFATYYCQNAYSFPFTFGQGTKVEIK
For the molecule B5, the equilibrium dissociation constant (Kd) in [3] amounted to 0.196 nM.

B6: h5C9oj (antibody, V domains shown)
VH: EVQLVESGGGLVQPGGSLRLSCAVSGYTFSMNWVRQAPGKGLEWVAWINMYTGEPTYADDFKGRFTISRDDSKNTLYLQMNSLRAEDTAVYYCARLYNGNALDYWGQGTLVTVSS
VL: DIQMTQSPSSLSASVGDRVTITCKSSQSLLNSGNQKSYLTWYQQKPGKAPKLLIYWASTLESGVPSRFSGSGSGTDYTLTISSLQPEDFATYYCQNAYFFPFTFGQGTKVEIK
For the molecule B6, the Kd in [4] worked out at 0.0777 nM; in test [3], 0.276 nM.

B7: Anti-CLDN 18.2-5C9oae (humanized antibody h5C9oae) (antibody, human IgG1, V domains shown)
VH: EVQLVESGGGLVQPGGSLRLSCAVSGYTFSMNWVRQAPGKGLEWVAWINMYTGEPTYADDFKGRFTISRDDSKNTLYLQMNSLRAEDTAVYYCARLYRGNSLDYWGQGTLVTVSS
VL: DIQMTQSPSSLSASVGDRVTITCKSSQSLLNSGNQKSYLTWYQQKPGKAPKLLIYWASTLESGVPSRFSGSGSGTDYTLTISSLQPEDFATYYCQNAYFFPFTFGQGTKVEIK
On to B7, for which the Kd was 0.14 nM in [1], 0.109 nM in test [2] and 0.183 nM in [3].

B8: humanized anti-Claudin 18.2 antibody h5C9oao (antibody, human IgG1, kappa, V domains shown)
VH: EVQLVESGGGLVQPGGSLRLSCAVSGYTFSMNWVRQAPGKGLEWVAWINMYTGEPTYADDFKGRFTISRDDSKNTLYLQMNSLRAEDTAVYYCARLARGNSMDYWGQGTLVTVSS
VL: DIQMTQSPSSLSASVGDRVTITCKSSQSLLNSGNQKSYLTWYQQKPGKAPKLLIYWASTLESGVPSRFSGSGSGTDYTLTISSLQPEDFATYYCQNAYFFPFTFGQGTKVEIKR
Regarding B8, the Kd stood at 0.134 nM in test [1] and 0.102 nM in test [2].

B9: h5C9oam (antibody, human IgG1, kappa, V domains shown)
VH: EVQLVESGGGLVQPGGSLRLSCAVSGYTFSMNWVRQAPGKGLEWVAWINMYTGEPTYADDFKGRFTISRDDSKNTLYLQMNSLRAEDTAVYYCARLARGNSIDYWGQGTLVTVSS
VL: DIQMTQSPSSLSASVGDRVTITCKSSQSLLNSGNQKSYLTWYQQKPGKAPKLLIYWASTLESGVPSRFSGSGSGTDYTLTISSLQPEDFATYYCQNAYFFPFTFGQGTKVEIKR
Take B9: in test [5], the Kd was found to be 0.172 nM.

B10: h5C9oh (antibody, V domains shown)
VH: EVQLVESGGGLVQPGGSLRLSCAVSGYTFSMNWVRQAPGKGLEWVAWINMYTGEPTYADDFKGRFTISRDDSKNTLYLQMNSLRAEDTAVYYCARLYRGNSLDYWGQGTLVTVSS
VL: DIQMTQSPSSLSASVGDRVTITCKSSQSLLNSGNQKSYLTWYQQKPGKAPKLLIYWASTLESGVPSRFSGSGSGTDYTLTISSLQPEDFATYYCQNAYEFPFTFGQGTKVEIK
Take B10: the equilibrium dissociation constant (Kd) in test [4] was found to be 0.0802 nM; in test [3], 0.201 nM.

B11: Anti-CLDN 18.2-5C9oag (humanized antibody h5C9oag) (antibody, human IgG1, V domains shown)
VH: EVQLVESGGGLVQPGGSLRLSCAVSGYTFSMNWVRQAPGKGLEWVAWINMYTGEPTYADDFKGRFTISRDDSKNTLYLQMNSLRAEDTAVYYCARLARGNSIDYWGQGTLVTVSS
VL: DIQMTQSPSSLSASVGDRVTITCKSSQSLLNSGNQKSYLTWYQQKPGKAPKLLIYWASTLESGVPSRFSGSGSGTDYTLTISSLQPEDFATYYCQNAYSFPFTFGQGTKVEIK
Regarding B11, the Kd in test [3] came out at 0.196 nM.

B12: Anti-CLDN 18.2-5C9ob (humanized antibody h5C9ob) (antibody, human IgG1, V domains shown)
VH: EVQLVESGGGLVQPGGSLRLSCAVSGYTFSMNWVRQAPGKGLEWVAWINMYTGEPTYADDFKGRFTISRDDSKNTLYLQMNSLRAEDTAVYYCARLYNGNSLDYWGQGTLVTVSS
VL: DIQMTQSPSSLSASVGDRVTITCKSSQSLLNSGNQKSYLTWYQQKPGKAPKLLIYWASTLESGVPSRFSGSGSGTDYTLTISSLQPEDFATYYCQNAYFFPFTFGQGTKVEIK
With B12, the dissociation constant Kd in test [1] was 0.129 nM; in test [4] it was 0.0863 nM; in test [2], 0.13 nM; in test [5] it was 0.16 nM; in test [3], 0.213 nM.

B13: h5C9oal (antibody, human IgG1, kappa, V domains shown)
VH: EVQLVESGGGLVQPGGSLRLSCAVSGYTFSMNWVRQAPGKGLEWVAWINMYTGEPTYADDFKGRFTISRDDSKNTLYLQMNSLRAEDTAVYYCARLARGNSMDYWGQGTLVTVSS
VL: DIQMTQSPSSLSASVGDRVTITCKSSQSLLNSGNQKSYLTWYQQKPGKAPKLLIYWASTLESGVPSRFSGSGSGTDYTLTISSLQPEDFATYYCQNAYYFPFTFGQGTKVEIKR
For B13, the dissociation constant Kd in test [5] was found to be 0.198 nM.

B14: chimeric anti-CLDN 18.2 antibody ch15G11 (antibody, V domains shown)
VH: EVQLQESGGGLVQPGGSRKLSCAASGFSFSSFGMHWVRQAPEKGLEWVAFISSGSSPIYYADTVKGRFTVSRDNPKNTLFLQMTSLRSEDTAMYFCARNYYGNAMDYWGQGSSVTVSS
VL: DIMMTQSPLSLTVTAGEKVTMNCKSSQSLLNGGNQKNYLAWYQQKPGQPPKLLIYWASTRESGVPARFTGSGSGTDFTLTINTVQAEDLAVYYCQNDYFYPLTFGTGTKLELKR
As to B14, the Kd in test [6] worked out at 0.0939 nM.

B15: Anti-CLDN 18.2-5C9 (antibody, V domains shown)
VH: VKLQESGPELKKPGETVKISCKASGYTFTNYGMNWVKQAPGKGLKWMGWINMYTGEPTYADDFKGRFAFSLETSASTAYLQINNLKNEDTATYFCSRLYNGNSLDYWGQGTSLTVSS
VL: DILLTQSPLSLTVTAGEKVTMSCKSSQSLLNSGNQKSYLTWYQQKPGQPPKLLLYWASTRESGVPARFTGSGSGTDFSLTISSVQTEDLAVYYCQNAYSFPFTFGSGTKLEIN
Regarding B15, the % of cells in gate M1 in test [7] came out at 0.7%. Also, in test [8], the EC50 (read off the curve) was found to be 0.05 µg/mL. Further, the dissociation constant Kd in [9] stood at 0.0699 nM.

B16: Anti-CLDN 18.2-15G11 (antibody, V domains shown)
VH: VQLQESGGGLVQPGGSRKLSCAASGFSFSSFGMHWVRQAPEKGLEWVAFISSGSSPIYYADTVKGRFTVSRDNPKNTLFLQMTSLRSEDTAMYFCARNYYGNAMDYWGQGSSVTVSS
VL: DIMMTQSPLSLTVTAGEKVTMNCKSSQSLLNGGNQKNYLAWYQQKPGQPPKLLIYWASTRESGVPARFTGSGSGTDFTLTINTVQAEDLAVYYCQNDYFYPLTFGTGTKLELK
With B16, the % of cells in gate M1 in test [7] was found to be 0.7%. For the same molecule, the EC50 (read off the curve) in [8] was determined as 0.06 µg/mL. For the same molecule, the Kd in [9] was 0.0662 nM.

B17: chimeric anti-CLDN 18.2 antibody ch9A1 (antibody, human IgG1, kappa, V domains shown)
VH: EVQLQQSGAELVRPGTSVKVSCKASRYAFTNYLIEWVKQRPGQGLEWIGMINPGSGGTHYNEKFKVKATLTADKSSSTAYMQLSSLTSDDSAVYFCARGGFGNSFAYWGQGTLVTVSA
VL: DILLTQSPLSLTVTAGEKVTMSCKSSQSLLNGGNLKNYLTWYQQKPGQPPKLLTYWASTRESGVPVRFTGSGSGTDFTLTISSVQAEDLAVYYCQNGYFYPYTFGGGTKLEIKR
B17: in [6], the Kd came out at 0.101 nM.

B18: chimeric anti-CLDN 18.2 antibody ch5C9 (antibody, human IgG1, kappa, V domains shown)
VH: EVKLQESGPELKKPGETVKISCKASGYTFTNYGMNWVKQAPGKGLKWMGWINMYTGEPTYADDFKGRFAFSLETSASTAYLQINNLKNEDTATYFCSRLYNGNSLDYWGQGTSLTVSS
VL: DILLTQSPLSLTVTAGEKVTMSCKSSQSLLNSGNQKSYLTWYQQKPGQPPKLLLYWASTRESGVPARFTGSGSGTDFSLTISSVQTEDLAVYYCQNAYSFPFTFGSGTKLEINR
Consider B18, for which the Kd in test [6] was 0.0988 nM.

Values taken from patent US20200207857A1.
